# Results as given in paper PMC8402574.
# Molecular target: NG19 (Non-Glycosylated protein of 19 kDa, S371 to F541 of the SARS-CoV-2 Spike protein RBD) (SARS-CoV-2) (UniProt P0DTC2)
# Assay: Tricine-SDS-PAGE under non-reducing conditions
substance,measurement,value
"NG19 (Non-Glycosylated protein of 19 kDa, S371 to F541 of the SARS-CoV-2 Spike protein RBD) (from UniProt P0DTC2 371-541) (domain or fragment)",stoichiometry N,2
